This series concerns the molecule itself. Briefly: SEC; Superose 6 column; purified OsHSP18.2 run with molecular weight markers, Ve/Vo against log molecular weight; homooligomer.

B1: OsHSP18.2, a class II cytosolic small heat shock protein of rice (6X His tagged recombinant) (natural protein, Oryza sativa indica var. PB-1, UniProt Q5VRY1 1-166, looked up)
chain: MESAMFGLETPLMTALQHLLDIPDGEGGAAGKQGATGGPTRAYVRDARAMAATPADVKDLPGAYAFVVDMPGLKSSDIKVQVEEERLLVISGERRRGGGEEEKEESCKYLRMERRMGKFMRKFVLPDNADVDKISAVCQDGVLTVTVEKLPPPEPKKPKTIEVKVA
notes: OsHSP18.2, class II heat shock protein, Oryza sativa indica var; complete ORF / CDS, 166 aa, predicted 18.2 kDa; the indica PB-1 clone may differ from it; pET23b usually adds a C-terminal His6 tag; copies: 12
As usually defined, the stoichiometry N is a count of units in the complex or per binding partner. With B1, the “stoichiometry N” value is about 12 subunits.

The values above are taken from paper PMC4568394, “Differentially expressed seed aging responsive heat shock protein OsHSP18.2 implicates in seed vigor, longevity and improves germination and seedling establishment under abiotic stress” (Frontiers in Plant Science, 2015).
